The target in assay [1] is T1, SARS-CoV-2 Wuhan-Hu-1 RBD (SARS-CoV-2, Wuhan-Hu-1 (GenBank …, UniProt P0DTC2)). As to the kind of experiment: BLI. To be noted: both partners purified.
Assay [2] deals with T1, SARS-CoV-2 Wuhan-Hu-1 RBD. Kind of assay: cell-based or functional assay.

B1: JR095 (antibody, V domains shown)
VH: VQLVESGGGVVQPGRSLRLSCAASGFTFSRYAMHWVRQAPGKGLQWVAIISYDGSNKYYADSVKGRFTISRDNSKNTLYLQMNSLRAEDTAVYYCARHITGTDYWGQGTLVTVSS
VL: DIQMTQSPSSLSASVGDRVTITCRASQGISIYLAWFQQKPGKAPKSLIYAASNLQSGVPSKFSGSGSGTDFTLTISSLQPEDFATYYCQQYDSYPITFGQGTRLEIK
For B1, the binding result in assay [1] is listed as “binds”. For the same molecule, the “neutralisation IC50, Wuhan-Hu-1 pseudovirus” value (“neutralisation IC50” for short) in assay [2] is greater than 1 µg/mL.

B2: JR311 (antibody, V domains shown)
VH: QVQLVQSGAEVKKPGASVKVSCKTSGYTFTNYFVHWVRQAPGQGLEWMGWINPNSGGTNYAQTFQAWVTMTRDTSINTAYMELSRLTSDDTAVYYCARDLSFSIVRGVMGYWGQGTLVTVSS
VL: not shown
As to B2, the binding result in assay [1] is recorded as “binds”. Moreover, in assay [2], the “neutralisation IC50” value is greater than 1 µg/mL.

B3: JR097 (antibody, V domains shown)
VH: QVQLVQSGAEVKKPGASVKVSCKTSAYTFTTYFMHWVRQAPGQGLEWMGIINPSGGSTRYAQKFQGRVTMTRDTSTSTVYMELSGLRSEDTAVYYCARERRPGFYDSSGYSFDYWGQGTLVTVSS
VL: SYELTQPPSVSVAPGKTARITCGGNNIGSKSVHWYQQKPGQAPVLVVYDDSDRPSGIPERFSGSNSGNTATLTISRVEAGDEADYYCQVWDSSSDPVVFGGGTKLTVL
B3: in assay [1], the binding result was “binds”. The “neutralisation IC50” value in assay [2] is greater than 1 µg/mL.

B4: JR310 (antibody, V domains shown)
VH: EVQLVESGGGLIQPGGSLRLSCAASGFTVSSNYMSWVRQAPGKGLEWVSVIYSGGSTYYADSVKGRFTISRDNSKNTLYLQMNSLRAEDTAVYYCARGDPSDYYYYGMDVWGQGTTVTVSS
VL: QSVLTQPPSVSGAPGQRVTISCTGSSSNIGAGYDVHWYQQLPGTAPKLLIYGNSNRPSGVPDRFSGSKSGTSASLAITGLQAEDEADYYCQSYDSSLSGSGVFGTGTKVTVL
For the molecule B4, the binding result in assay [1] is “binds”. In addition, the “neutralisation IC50” value in assay [2] is 0.219 µg/mL.

B5: JR049 (antibody, V domains shown)
VH: EVQLVESGGGLVQPGGSLRLSCAASGFTFSSYDMHWVRQVTGKGLEWVSGIGTAGDTYYRDSVKGRFTISRENAKKSLYLQMNSLRAGDTAVYYCARDNGALYYYGSGAMDVWGKGTTVTVSS
VL: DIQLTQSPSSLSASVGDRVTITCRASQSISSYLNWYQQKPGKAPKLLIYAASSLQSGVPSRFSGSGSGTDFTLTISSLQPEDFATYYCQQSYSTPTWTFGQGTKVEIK
In the case of B5, the binding result in assay [1] is listed as “binds”. The “neutralisation IC50” value in assay [2] is greater than 1 µg/mL.

B6: JR090 (antibody, V domains shown)
VH: QVQLQQWGAGLLKPSETLSRTCAVYGGSFSGHYWSWIRQPPGKGLEWIGEINHSGSTNYNPSLKSRVTISVDTSKNQFSLKLSSVTAADTAVYYCARGSRAVAGTAVYFDLWGRGTLVTVSS
VL: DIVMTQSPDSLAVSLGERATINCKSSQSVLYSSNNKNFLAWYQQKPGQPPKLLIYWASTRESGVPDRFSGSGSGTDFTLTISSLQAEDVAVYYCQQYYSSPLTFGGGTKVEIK
As to B6, the binding result in assay [1] is reported as “binds”. The “neutralisation IC50” value in assay [2] is greater than 1 µg/mL.

B7: JR235 (antibody, V domains shown)
VH: EVQLVESGGGLVQPGRSLRLSCAASGFTFDDYAMHWVRQAPGKGLEWVSGISWNSGRIDYADSVKGRFTISRDNAKNSLYLQMNSLRAEDTALYYCAKVSTVTTYLMGYFDLWGRGTLVTVSS
VL: EIVMTQSPATLSVSPGERATLSCRASQSVSSNLAWFQQKPGQAPRLLIYGASTRATGIPARFSGSGSGTEFILTISSLQSEDFAVYYCQLYSYWPPESSFGQGTKLEIK
On to B7, for which the binding result in assay [1] is recorded as “binds”. The “neutralisation IC50” value in assay [2] is greater than 1 µg/mL.

B8: JR210 (antibody, V domains shown)
VH: EVQLVESGGGLVQPGGSLRLSCAASGFTFSNYWMTWVRQAPGKGLEWVANIKQDGSEKYYVDSVKGRFTISRDNAKNSLYLQMNSLRAEDTAVYYCARDLAVAISWFDPWGQGTLVTVSS
VL: NFMLTQPHSVSESPGKTVTMSCTRSSGSIASNYVQWYQQRPGSSPTTVIYEDNQRPSGVPDRFSGSIDSSSNSASLTISGLKTEDEADYYCHSYDSPRVVFGGGTKLTVL
In the case of B8, the binding result in assay [1] is “binds”. In addition, the “neutralisation IC50” value in assay [2] was found to be 0.0897 µg/mL.

B9: JR092 (antibody, V domains shown)
VH: QVQLVESGGGLVKPGGSLRLSCAASGFTFSDYYMSWIRQAPGKGLEWVSYSSSRGSIIHYADSVKGRFTISRDNAKNSLCLQMNSLRAEDTAVYYCARATTPYSGYSMWGQGTLVTVSS
VL: NFMLTQPHSVSESPGKTVTISCTGSSGSIASNYVQWYQQRPGSAPTTVIYEDNQRPSGVPDRFSGSIDSSSNSASLTISGLKTEDEADYYCQSYDSSNWVFGGGTKLTVL
For B9, the binding result in assay [1] was “binds”. In assay [2], the “neutralisation IC50” value stood at 0.109 µg/mL.

B10: JR093 (antibody, V domains shown)
VH: QVQLVQSGAEVKKPGSSVKVSCKASGGTFSSYAISWVRQAPGQGLEWMGRIVPILNIANYAQRFQGRVTITADKSTSTAYMELSSLRSEDTAVYYCASPGSLLLGERIDELQFDYWGQGTLVTVSS
VL: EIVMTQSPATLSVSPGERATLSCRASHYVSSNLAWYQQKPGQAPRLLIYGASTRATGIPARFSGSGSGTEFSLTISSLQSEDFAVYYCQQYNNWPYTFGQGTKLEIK
As to B10, the binding result in assay [1] was “binds”. Also, in assay [2], the “neutralisation IC50” value was determined as 0.131 µg/mL.

B11: JR170 (antibody, V domains shown)
VH: QVQLVQSGAEVRKPGASVKVSCKASRYTFTNNYIHWVRQAPGQGLEWMGIINPSGGSTTYAQKFQGRVTMTGDTSTSTVYMELSSLRSEDTAVYYCARGGFVPAATSYFDYWGQGTLVTVS
VL: QSALTQPRSVSGSPGQSVTISCTGTSSDVGGYNYVSWYQQHPGKAPKLMIYDVSKRPSGVPDRFSGSKSGNTASLTISGLQAEDEADYYCCSYAGSYTLVFGGGTKLTVL
Take B11: the binding result in assay [1] is “binds”. The “neutralisation IC50” value in assay [2] was greater than 1 µg/mL.

B12: JR211 (antibody, V domains shown)
VH: QVQLQESGPGLVKPSGTLSLTCAVSGGSISSSHWWNWVRQPPGKGLEWIGEIYHSGSTNYSPSLKSRVTISVDKSKNQFSLKLSSVTAADTAVYYCAKSMRAGPNDGFDYWGQGTLVTVSS
VL: QSALTQPASVSGSPGQSITISCTGTSSDVGGYNYVSWYQQHPGKAPKLMIYDVSNRPSGVSNRFSGSKSGNTASLTISGLQAEDEADYYCSSYTSSSTVVFGGGTKLTVL
For the molecule B12, in assay [1], the binding result is on record as “binds”. The “neutralisation IC50” value in assay [2] is greater than 1 µg/mL.

B13: JR171 (antibody, V domains shown)
VH: QVQLVQSGAEVKKPGASVKVSCKASGYTFTSYYMHWVRQAPGQGLEWMGIINPSGGSTSYAQKFQGRVTMTRDTSTSTVYMELSSLRSEDTAVYYCARAYDSAPGFDYWGQGTLVTVSS
VL: DIQLTQSPSFLSASVGDRVTITCRASQGISSYLAWYQQKPGKAPKLLIYAASTLQSGVPSRFSGSGSGTEFTLTISSLQPEDFATYYCQQLNSYPSITFGQGTRLEIK
For the molecule B13, the binding result in assay [1] is recorded as “binds”. Moreover, the “neutralisation IC50” value in assay [2] was greater than 1 µg/mL.

B14: JR070 (antibody, V domains shown)
VH: QLVQSGPEVKKPGTSVKVSCKASGFTFSSSAMQWVRQARGQGLEWIGWIVVGSGNTNYAQKFQERVTISRDMSTSTAYMEVSSLTSEDAAVYYCAAPNCSRTTCSDGFDIWGQGTMVTVSS
VL: EIVLTQSPGTLSLSPGERATLSCRASQSVRSSYLAWYQQKPGQAPRLLIYGASSRATGIPDRFSGSGSGTDFTVTISRLEPEDFAVYYCQQYGNSPWTFGQGTKVEIK
B14: in assay [1], the binding result is on record as “binds”. Moreover, the “neutralisation IC50” value in assay [2] was determined as 0.00193 µg/mL.

B15: JR172 (antibody, V domains shown)
VH: EVQLVESGGGLVQPGRSLRLSCAASGFTFDDYAMHWVRQTPGKGLEWVSSISWNSGSIGYADSVKGRFTISRDNAKNSLYLQMNSLRAEDTALYYCAKDKRIDYSNYGGGFDHWGQGTLVTVSS
VL: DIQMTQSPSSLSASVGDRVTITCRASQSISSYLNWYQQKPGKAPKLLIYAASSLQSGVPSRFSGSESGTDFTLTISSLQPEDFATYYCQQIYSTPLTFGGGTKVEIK
B15: the binding result in assay [1] is reported as “binds”. Besides, in assay [2], the “neutralisation IC50” value is greater than 1 µg/mL.

B16: JR094 (antibody, V domains shown)
VH: EVQLVQSGAEVKKPGESLKISCKGSGYSFIFYWIGWVRQMPGKGLEWMGIIYPGDSDTRYSPSFQGQVTISADKSISTAYLQWSSLKASDTAMYYCASTVTRSPYDAFDMWGQGTMVTVSS
VL: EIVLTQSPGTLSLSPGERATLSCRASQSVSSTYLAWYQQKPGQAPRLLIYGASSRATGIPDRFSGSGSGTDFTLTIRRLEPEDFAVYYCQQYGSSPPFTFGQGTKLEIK
As for B16, the binding result in assay [1] is given as “binds”. Moreover, the “neutralisation IC50” value in assay [2] is greater than 1 µg/mL.

B17: JR062 (antibody, V domains shown)
VH: EVQLVESGGGLIQPGGSLRLSCAASGFSVSNNYMNWVRQAPGKGLEWLSVIYNAGTTYYAGSVKGRFTISKDNSKNTLYLQLNSLRPEDTAVYYCARGHTGVAALMTGAFDIWGQGTMVTVSS
VL: QSALTQPPSASGSPGQSVTISCTGTSSDVGGYDYVSWYQQYPGKAPKLMIYEVSKRPSGVPDRFSGSKSGNTASLTVSGLQAEDEADYYCSSYAGNNNWVFGGGTKLTVL
As for B17, the binding result in assay [1] was “binds”. In addition, the “neutralisation IC50” value in assay [2] was 0.0029 µg/mL.

B18: JR212 (antibody, V domains shown)
VH: QVQLVQSGAEVKKPGSSVKVSCKASGGTFSNYAISWVRQAPGQGLEWMGGIIPLFGTTNYAQKFQGRVTITADESTSTAYMELSSLRSEDTAMYYCASYSSGYHLVTDYWGQGTLVTVSS
VL: EIVLTQSPGTLSLSPGERATLSCRASQSVTSSYLAWYQQKPGQAPRLLIYGASSRATGIPDRFSGSGSGTDFTLTISRLEPEDFAVYYCQQYGTSRTFGQGTKVEIK
Turning to B18, the binding result in assay [1] is recorded as “binds”. Also, the “neutralisation IC50” value in assay [2] is 0.178 µg/mL.

B19: JR308 (antibody, V domains shown)
VH: QVQLVESGGGVVQPGRSLRLSCAASGFTFSSYGMHWVRQAPGKGLEWVAVISYDGSNKYYADSLKGRFTISRDNSKNTLYLQMNSLRAEDTAVYYCAKEGRGTYYYGSGSCPGGYWGQGTLVTVSS
VL: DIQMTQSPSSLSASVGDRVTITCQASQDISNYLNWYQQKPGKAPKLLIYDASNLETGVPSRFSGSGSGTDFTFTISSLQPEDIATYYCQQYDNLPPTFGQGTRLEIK
Take B19: in assay [1], the binding result is given as “binds”. Besides, the “neutralisation IC50” value in assay [2] was greater than 1 µg/mL.

B20: JR307 (antibody, V domains shown)
VH: EVQLVESGGGLVQPGGSLRLSCEVSGFTFSNYWMHWVRQAPGKGLVWVSRVDSDGNSTTYADSVNGRFTISRDNAKNTLYLQMKSLRAEDTAIYYCTRDCENCRHWYFDLWGRGTLVTVS
VL: SYELTQPPSVSVTPGQTARIACGGNNIGTKGVHWYQQRPGQAPVLVVYDDENRPSGIPERFSGSNSGDTATLIITWVEAGDEADYYCQVWHGLSDHPVFGGGTRLTVL
On to B20, for which, in assay [1], the binding result is “binds”. The “neutralisation IC50” value in assay [2] was greater than 1 µg/mL.

B21: JR179 (antibody, V domains shown)
VH: QVQLVQSGAEVKKPGASVKVSCKASGYTFSSFAISWVRQAPGQGLEWMGWISAYNGNTNYAQNLQGRVTMTTDTSTSTVYMELRSLRSDDTAVYYCAREAGLTGNLDYWGQGTLVTVSS
VL: SYELTQPPSVSVAPGQTARITCGGNNIGSKNVHWYQQKPGQAPVVVVYDDSDRPSGIPERFSGSNSGNTATLTISRVEAGDEADYYCQVWDSRSYHHVVFGGGTKLTVL
As to B21, the binding result in assay [1] was “binds”. In assay [2], the “neutralisation IC50” value is greater than 1 µg/mL.

Source of the values: PMC9253517 (The Journal of Experimental Medicine, 2022).
